In the nanobody polyreactivity screen of Harvey et al. (2022):

Assay: yeast display, Sf9 membrane polyspecificity reagent, FACS + sequencing; frameworks hold sequencing errors
Method in brief: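 Galactose induction of a Saccharomyces cerevisiae BJ5465 synthetic nanobody display library ran 36–48 hours. The cells were then stained for 1 hour at 4 °C with 10% biotinylated, detergent-solubilized Sf9 membrane reagent, pulled down on streptavidin microbeads and FACS-sorted into low and high (top ~1%) gates on expression and reagent-binding fluorescence. Labels for polyreactivity follow the gate of origin.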

| Sequence | polyreactivity (PSR sort gate) |
| --- | --- |
| QVQLVDSGGGLVQAGGSLRLSCAASGRTIATYTQGWYRHAPGKERELVAAISKSGGSTYYADSVKGRFTISRDNAKNTVYLQMNSLKTEDTAVYYCAKRRSGNVRKYDYWGQGTQVTVSS | high polyreactivity |
| QVQLVDSGGGLVQAGGSLRLSCAASGRTIYLYAMACYRQAPGKERELVAAISERGGRTYYADSVKGRFTISRDNAKNTVYLQMNSLKPEDTAVYYCAAVKGYNYGYWGQGTQVTVSS | high polyreactivity |
| QVQLVDSGGGLVQAGGSLRLSCAASGSIFNVYAMGWYRQAPGKERELVAAITGSGGRTYYADSVKGRFTISRDNAKNTVYLQMNSLKPEDTAVYYCAATTRPGYRYEGDYWGQGTQVTVSS | low polyreactivity |
| QVQLVDSGGGLVQAGGSLRLSCAASGSIFPGNPMGWYRQAPGKERELVAVIDFSGASTYYADSVKGRFTISRDNAKNTVYFQMNSLKPEDTADYWGQCTQVTVSS | low polyreactivity |
| QVQLVDSGGGLVQAGGSLRLSCAASGSIFSKYAMGGYRQAPGKERELVAAISGSGVSTYYADSVKGRFTISRDNAKNTVFLQMNSLKTEDTAVYYCNARGSFHQPRYGYWGQGTQVTVSS | high polyreactivity |
| QVQLVDSGGGLVQAGGSLRLSCAASGSIFSVYSMGGNRQATGKERELVASISRTGTTNYADSVKGSFTISRDNAKNTVYLQMNSLKPEDTAVFYCATDFTDWDVFLIKEFGYDYWGQGTQVTVSS | low polyreactivity |
| QVQLVDSGGGLVQAGGSLRLSCAASGSIFVGNAMGWYRQAPGKERELVAAITSSGGRTYYADSVKGRFTISRDNAKYTVYLQMNSLKAEDTSVYYCNTSRTRRFSLWDYDYWGQGTQVSVSS | high polyreactivity |
| QVQLVDSGGGLVQAGGSLRLSCAASGSIFVKYAMGCYRQAPGKERELVAAISGSGGSTYYADSVKGRFTISRDNAKNTVSLQMNSLKPEDTAVYYCAADDYFYSGRYGFEFWGQGTQVTVSS | low polyreactivity |
| QVQLVDSGGGLVQAGGSLRLSCAASGSIFYWYAMGWYRQAPGKERELVAAISWSGGSTFYADSVKGRFTISRDNAKNTVYLQMNSLKPEDTAVYYCAAETPYDYDYWGQGTQVTVSS | high polyreactivity |
| QVQLVDSGGGLVQAGGSLRLSCAASGSIFYYNAMGWYRPAPGKERELVAAITSSGGSTYYADSVKGRFTISRDNAKNTVYLQMNSLKPEDTAVYYCYAGATALRYRPYSSAYDYWGQGTQVTVSS | low polyreactivity |
| QVQLVDSGGGLVQAGGSLRLSCAASGSILVYYAMGWYRQAPGKERELVAAISSGGSTNYADSVKGRFTISRDNANNTVYLKINSLKPEDTAVYYCAKPDRTGWLEGDYWGQGTQVSVSS | low polyreactivity |
| QVQLVDSGGGLVQAGGSLRLSCAASGSNFDDYAMGWYRQAPGKERELVAAISSSGTSTYYADSVKGRFTISRDNAKNTVYLQMNSLKPEDTAVYYCAAKKKYHYVASYKRFEYWGQGTQVTVSS | low polyreactivity |
| QVQLVDSGGGLVQAGGSLRLSCAASGSNFGTYAMGWYRQAPGKERELVAAITTNGVSTYYADSVKGRFTISRDNAKNTVYLQMNSLKPEDTAVYYCAAPIQAWVRHLADIRYDYWGQGTQVTVSS | low polyreactivity |
| QVQLVDSGGGLVQAGGSLRLSCAASGSTFDAYAMGWYRQAPGKERELVAGISSGGSYEYAESVKGRFTISRDNAKNTVYVQMNSLKPEDTAVYYCAADSRQSDYYYQPTKFDYWGQGTQVTVSS | low polyreactivity |
| QVQLVDSGGGLVQAGGSLRLSCAASGSTFESYAMGWDRQAPGKERELVAAISTNGGRTRYADSVKGRFTISRDNAKNTVYLQMNSLKPVDTAVYYCATYVRGVYASSGYDYWGQGTQVTVSS | high polyreactivity |
| QVQLVDSGGGLVQAGGSLRLSCAASGSTFGPYAMGWYRQAPGKERELVAAISGSGGTTYYADSVKGRFTMSRDNSKNTVYLQMNSLKPEDTAVYDCAAYPRWTYWGYVERYYWGQGTQVTVSS | high polyreactivity |
| QVQLVDSGGGLVQAGGSLRLSCAASGSTFGSYAMGWYRQAPGKERELVAAISWNGGRTYYADSVKGRFTISRDNAKNTVYLQMNSLKPEDTAVYYCAKVVKYQSGGGLDYWGQGTQVTVSS | high polyreactivity |
| QVQLVDSGGGLVQAGGSLRLSCAASGSTFKYYAMGWYRQAPGKERELVAAISGRGGRTYYADSVKGRFTISRDHAKNTVYLQMNSLKPEDTAVYYCNAPFLGAHHYGYEYWGQGTQVTVSS | high polyreactivity |
| QVQLVDSGGGLVQAGGSLRLSCAASGSTFNPYAMGWYRQAPGKERELVAGISWSGGSTYYADSVKGRFSISRDNAKNTVYLQMNSLKPEDTAVYYCAVVVYWSVIYDFWGQGTQVTVST | low polyreactivity |
| QVQLVDSGGGLVQAGGSLRLSCAASGSTFRYNAMGWYRQAPGKERELVAAIDKRGDSTYADSVKGRFTISRDNAKNTVYLQLNSLKPEDTAVYYCAADSDSKYNYGFLWDTYEYWGQGTQVTVSS | low polyreactivity |
| QVQLVDSGGGLVQAGGSLRLSCAASGSTFRYNAMGWYRQAPGKERELVAAIDKRGDSTYADSVKGRFTISRDNAKNTVYLQMNSLKPEDTAVYYCAADSDSKYNYGFLWDTYEYWGQGTQVTVSS | low polyreactivity |
| QVQLVDSGGGLVQAGGSLRLSCAASGSTFVQYAMGWYRPAPGKERELVAAISTGGSTNYADSVKGRFTISRDNAKNTVYLEMNSLKPEDTAVYYCNVAVWTIVQSLYPYDYWGQGTQVTVSS | low polyreactivity |

| Sequence | polyreactivity (PSR sort gate) |
| --- | --- |
| QVQLVDSGGGLVQAGGSLRLSCAASGSTFWYNAMGWYRQAPGKERELVAANSISDGNTYYADSVKGRFTISRDNAKNTVFLQMYSLKPEDTAVYYCNAGYWYDGPDYITEYDYWGQGTQVTVSS | low polyreactivity |
| QVQLVDSGGGLVQAGGSLRLSCAASGSTIPIYAMVWYRQAPGKERELVARITWSGGSTYYADSVKGRFTISRDNAKNTVYLQMNSLKPEDTAVYYCAAVVITTPYDRYYYWGQGTQVTVSS | high polyreactivity |
| QVQLVDSGGGLVQAGGSLRLSCAASGSTIPNYAMGWYRQAPGKERELVADIDSSGGSTYYADSVKGRFTISRDNAKNTVYLQMNSLKPEDTAVYYCAAGYFWYDVLNSRVLVWNNYWGQGTQVTVSS | high polyreactivity |
| QVQLVDSGGGLVQAGGSLRLSCAASGSTLNSYVIGWYRQAPGKERELVATIRSGSSTNYADSVKGRFTISRDNAKNTVYLQMNSLKPEDTAVYYCAADAYSLCYDSWGQGTQVTVSS | low polyreactivity |
| QVQLVDSGGGLVQAGGSLRLSCAASGSTSYWYAMGWYRLAPWKEMELFATIRSRGGSTSYADSVKGRFTISRDNAKNTVYLQMNSLKPEDTAVYYCAVEYQSWKGWWFDYWGQGTQVTVSS | high polyreactivity |
| QVQLVDSGGGLVQAGGSLRLSCAASGSTVQYYAMGWYRQAPGKERELVAAITHSGTRTYYADSVKGRFTISRDNAKNTVYLQINSLKPEDTAVYYCAARGYGKYDYWGQGTQVTVSS | high polyreactivity |
| QVQLVDSGGGLVQAGGSLRLSCAASGYTFVGYAMGWSRQAPGKERELVAVISGSGGSTRYADSVKGRFTISRDNAKNTVYLQMNSLKPEDTAVYYCAARQPRTQAVYEGYYWGQGTQVTVSS | high polyreactivity |
| QVQLVDSGGGLVQAGGSLRLSCAASVRIFTINAMGWYRPAPGKDRELVAAISDGGGSTYYADSVKGRFTISRYNAKNTVYLQMNSLKPEDTAVYYCARKSWPKERRVDPGYDYGGQGTQVTVSS | low polyreactivity |
| QVQLVDSGGGLVQAGGSLRLSCASSGFIFAVYAMGWYRQAPGKERELVARISWSGGSTYYADSVKGRFTISRDNAKNTVYLQMNSLKPEDTAVNYCWGQGTQVTVSS | low polyreactivity |
| QVQLVDSGGGLVQAGGSLRLSCASSGRIFHGYAMGWYRHAPGKERELVAAIDEDGGSTYYADSVKGRFTISRDNAKNTVYLQMNSLKPEDTAVYYCATDALYTYGYDYWGQGTQVTVSS | low polyreactivity |
| QVQLVDSGGGLVQAGGSLRLSCDASGFIFERYAMGWYRQAPGKERELVAGIYSGGSTYYADSVKGRFTISRDNAKNTVYLQMNSLKPEDTAVYYCAPYRRQHIIYNYWGQGTQVTVSS | high polyreactivity |
| QVQLVDSGGGLVQAGGSLRLSCDASGSTFRGYAMGWYRKAPGKERELVAAISSRGARTHYADSLKGRFTISRDNAKNNVYLQMNSLKPEDTAVYYCNKRQVFFSTGEYEFDYWGQGTQVTVSS | low polyreactivity |
| QVQLVDSGGGLVQAGGSLRLSCPASGITLNHYVMGWYRQAPAKETELVAAISSSGGSTYYADSVKGRFTISRDNAMITVYLQMNSLKPEDTAVYYCAKDYNGRYTWRYEYWGQGTQVTVSS | high polyreactivity |
| QVQLVDSGGGLVQAGGSLRLSCPASGSIISVYARGWYRQAPGKERELVADITGTGDTYYADSVKGRFTISRDKAKNTVYLHRNSLKPDDTAGYYCNTVYELYYDPSVTEDYWGQGTQVTVSS | low polyreactivity |
| QVQLVDSGGGLVQAGGSLRLSCSASVRTFRGTAMGWYRHAPGKEREMVAPITYRTGSKYYPDSVKGRFTNSRDNAKNTVYLLLNSLKPEDSAVYYCAAVSGRSYDKDYFWGQGTQVTVSS | high polyreactivity |
| QVQLVDSGGGLVQAGGSLRLSSAASGFIFQANAMGSSRQAPGKERELVAAIDDGDSTYADSVKGRFTISRDNAKNSVYLQMNSLKPEDTAVYYCATRRNRSYDYWGQGTQVTVSS | low polyreactivity |
| QVQLVDSGGGLVQAGGSLRLTCAASGRTFWKYCKGWYRQAPGQERELVAVMSRPAGSTYYADSVKGRFPISRDNAKNTGYLLLNRLKPEDTAVYSCAKRPKNKPVLGDYDHWGQGTQVTVSS | low polyreactivity |
| QVQLVDSGGGLVQAGGSLRLTCAASGTFYYYAMGWNRQAPGKERELVAAISYSGGRTYYADSVKGRFTISRDNAKNTVYLQMNSLKPEDTAFYYCNTDARSKKYIFDFDYWGQGTQVTLSS | high polyreactivity |
| QVQLVDSGGGLVQAGGSLRLTCGSSGSIFYYYVMGLYIQAHGKERELVAAISSGGGTNYSDSVKGRFTISRYNAKNTVYLQMNSLKPEDTAVYYCAKASAYGLANDYDYCGQGTQVTVSS | low polyreactivity |
| QVQLVDSGGGLVQAGGSLSLSCAASGFTFVRYAMGWYRQAPGKERELVAAISGRGGSTYFADSVKGRFTISRDYAKNTVYLQMNSLKPDDTAVYYCATDYSRTFDYWGQGTQVTVSS | high polyreactivity |
| QVQLVDSGGGLVQAGGSLSLSCAASGRTFARYTMGWSRQAPGKERELLAVISRSGGSTYYADSVKGRFTISRDNAKNSVYLKKNSLKQEDTAVYYCAAGYFVVTTLEYYFWGQGTQVTVSS | high polyreactivity |
